The values below come from patent publication US20250051465A1 (published 2025).

Assay [1] has as its target T1, full length human LEPR on cells (human, UniProt P48357 22-1165).
T1 sequence: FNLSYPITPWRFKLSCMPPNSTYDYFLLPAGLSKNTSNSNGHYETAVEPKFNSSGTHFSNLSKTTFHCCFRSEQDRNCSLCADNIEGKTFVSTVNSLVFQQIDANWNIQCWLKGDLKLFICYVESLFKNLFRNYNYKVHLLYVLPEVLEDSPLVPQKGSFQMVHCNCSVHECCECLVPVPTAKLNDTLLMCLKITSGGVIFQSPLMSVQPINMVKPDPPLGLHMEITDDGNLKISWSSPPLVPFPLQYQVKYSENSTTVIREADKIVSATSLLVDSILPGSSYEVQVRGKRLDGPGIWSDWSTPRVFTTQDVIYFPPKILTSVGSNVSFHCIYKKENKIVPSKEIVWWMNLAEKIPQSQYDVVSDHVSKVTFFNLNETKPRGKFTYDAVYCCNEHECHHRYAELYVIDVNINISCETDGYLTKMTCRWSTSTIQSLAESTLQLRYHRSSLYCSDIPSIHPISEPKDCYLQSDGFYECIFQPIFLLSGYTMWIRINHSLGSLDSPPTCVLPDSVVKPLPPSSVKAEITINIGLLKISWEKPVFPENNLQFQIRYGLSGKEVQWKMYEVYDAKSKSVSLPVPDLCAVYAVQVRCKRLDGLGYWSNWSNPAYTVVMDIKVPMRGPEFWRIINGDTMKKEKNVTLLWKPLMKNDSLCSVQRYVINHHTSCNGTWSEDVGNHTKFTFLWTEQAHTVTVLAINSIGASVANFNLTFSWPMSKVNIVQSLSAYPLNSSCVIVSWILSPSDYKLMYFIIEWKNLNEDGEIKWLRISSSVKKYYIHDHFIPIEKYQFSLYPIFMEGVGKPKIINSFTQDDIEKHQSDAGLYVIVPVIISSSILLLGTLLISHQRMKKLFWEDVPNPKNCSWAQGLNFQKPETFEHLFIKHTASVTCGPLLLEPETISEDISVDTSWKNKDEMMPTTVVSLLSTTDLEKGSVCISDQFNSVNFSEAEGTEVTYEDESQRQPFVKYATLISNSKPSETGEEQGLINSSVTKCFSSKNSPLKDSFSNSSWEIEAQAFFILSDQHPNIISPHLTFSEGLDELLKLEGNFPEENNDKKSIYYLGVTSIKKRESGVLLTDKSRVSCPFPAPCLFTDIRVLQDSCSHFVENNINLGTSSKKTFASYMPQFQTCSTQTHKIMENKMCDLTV
Description: cell-based or functional assay.

For assay [2], the target named is T2, human LEPR extracellular domain expressed with a C-terminal myc-myc-hexahistidine tag (hLEPR.mmh) (human, UniProt P48357 22-839).
T2 construct: also called human LEPR-MMH; monomeric human LEPR
Description: SPR, captured mAb, 25C. As for the experimental part:
(§1) Equilibrium dissociation constants (KD values) for LEPR binding to purified anti-LEPR monoclonal antibodies were determined using a real-time surface plasmon resonance biosensor using a Biacore 4000 instrument. All binding studies were performed in 10 mM HEPES, 150 mM NaCl, 3 mM EDTA, and 0.05% v/v Surfactant Tween-20, pH 7.4 (HBS-ET) running buffer at 25° C. and 37° C. The Biacore sensor surface was first derivatized by amine coupling with a monoclonal mouse anti-human Fc antibody (GE, #BR-1008-39) to capture anti-LEPR monoclonal antibodies. […] Kinetic association (kₐ) and dissociation (kd) rate constants were determined by fitting the real-time binding sensorgrams to a 1:1 binding model with mass transport limitation using Scrubber 2.0c curve-fitting software. Binding dissociation equilibrium constants (KD) and dissociative half-lives (t½) were calculated from the kinetic rate constants as: […]

For assay [3], the target named is T3, Macaca fascicularis LEPR extracellular domain expressed with a C-terminal myc-myc-hexahistidine tag … (Macaca fascicularis, UniProt Q9MYL0 22-837 (rhesus entry)).
T3 construct: also called mfLEP.MMH
Description: SPR, captured mAb, 25C. As for the experimental part: as §1

Assay [4] addresses T4, human LEPR extracellular domain expressed with a C-terminal mouse IgG2a Fc tag (hLEPR.mFc) (human).
T4 construct: also called dimeric human LEPR
T4 chain: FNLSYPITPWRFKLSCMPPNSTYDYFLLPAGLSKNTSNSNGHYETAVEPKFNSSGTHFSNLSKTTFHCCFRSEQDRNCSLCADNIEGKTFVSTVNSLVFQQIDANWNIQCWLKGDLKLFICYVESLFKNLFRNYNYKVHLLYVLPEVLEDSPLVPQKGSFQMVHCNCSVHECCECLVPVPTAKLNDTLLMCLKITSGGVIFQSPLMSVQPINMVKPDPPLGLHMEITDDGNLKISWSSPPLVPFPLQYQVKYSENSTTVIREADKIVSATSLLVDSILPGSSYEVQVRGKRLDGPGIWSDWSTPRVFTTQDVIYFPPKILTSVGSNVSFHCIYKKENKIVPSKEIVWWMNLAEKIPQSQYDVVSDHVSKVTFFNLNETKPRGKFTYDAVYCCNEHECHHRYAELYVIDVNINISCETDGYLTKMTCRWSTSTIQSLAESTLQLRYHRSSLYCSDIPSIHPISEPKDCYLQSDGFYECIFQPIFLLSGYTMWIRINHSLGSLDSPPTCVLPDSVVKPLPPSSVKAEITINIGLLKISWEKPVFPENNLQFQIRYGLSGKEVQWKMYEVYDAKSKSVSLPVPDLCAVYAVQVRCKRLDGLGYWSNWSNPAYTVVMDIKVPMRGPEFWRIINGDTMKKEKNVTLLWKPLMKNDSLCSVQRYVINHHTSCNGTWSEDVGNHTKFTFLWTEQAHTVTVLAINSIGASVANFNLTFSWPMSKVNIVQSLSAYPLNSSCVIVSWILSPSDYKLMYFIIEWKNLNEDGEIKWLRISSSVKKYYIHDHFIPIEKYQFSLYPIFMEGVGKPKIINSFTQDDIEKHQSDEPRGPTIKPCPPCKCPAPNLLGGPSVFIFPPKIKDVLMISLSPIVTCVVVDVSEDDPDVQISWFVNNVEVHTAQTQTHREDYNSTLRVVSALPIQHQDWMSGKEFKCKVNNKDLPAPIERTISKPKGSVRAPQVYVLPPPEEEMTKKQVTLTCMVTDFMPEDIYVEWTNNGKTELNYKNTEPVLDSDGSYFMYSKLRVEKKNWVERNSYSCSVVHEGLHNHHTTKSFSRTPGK
The assay can be described thus: SPR, captured mAb, 25C. The procedure: as §1
In general terms: SPR reads the build-up and loss of mass on a sensor chip optically.

B1: H4H18417P2 (antibody, human IgG4, V domains shown)
VH: QVQLVESGGGVVQPGRSLRLSCAASGFTFSTYGMHWVRQAPGKGLEWVSVISYDESNKYYADSVKGRFTISRDNSKNALYLQMNSLRNEDTAVYYCARDRPFGLVTGWFDPWGQGTLVTVSS
VL: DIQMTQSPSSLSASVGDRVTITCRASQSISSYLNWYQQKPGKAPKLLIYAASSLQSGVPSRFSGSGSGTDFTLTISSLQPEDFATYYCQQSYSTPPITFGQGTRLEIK
notes: Fully human antibody with human IgG4 Fc (H4H prefix)
Regarding B1, in assay [1], the “% activation, with 200 pM human Leptin” value is 87%; the “% activation, without human Leptin” value amounted to 5%; the “EC50, STAT3-Luc reporter, with 200 pM human Leptin” value (from here on “EC50 … with 200 pM human Leptin”) amounted to 5.23e-10 M; the “EC50, STAT3-Luc reporter, without human Leptin” value (from here on “EC50 … without human Leptin”) came to 0.153 nM. Besides, in assay [2], the “100 nM hLEPR-MMH Bound (RU)” value was found to be 28 RU; the affinity, expressed as Kd, was 129 nM; the koff came to 0.0079 s⁻¹; the kon is 61400 M⁻¹ s⁻¹. For the same molecule, in assay [2], the t½ was determined as 1.5 min. In addition, in assay [3], the “100 nM mfLEP.MMH Bound (RU)” value was determined as 33 RU, the Kd was determined as 139 nM, the koff was 0.0123 s⁻¹ and the kon is 88300 M⁻¹ s⁻¹. Further, the t½ in assay [3] amounted to 0.9 min. For the same molecule, in assay [4], the “100 nM hLEPR-mFc Bound (RU)” value was determined as 90 RU, the Kd worked out at 4.04 nM, the off-rate (koff) stood at 0.000563 s⁻¹ and the kon was 140000 M⁻¹ s⁻¹. In addition, the t½ in assay [4] worked out at 21 min.

B2: H4H18445P2 (antibody, human IgG4, V domains shown)
VH: QVQLQESGPGLVKPSQTLSLTCTVSGGSISSGGDYWSWIRQLPGKGLEWIGYIYYSGSAYYNPSLKSRGTISIDTSKNQFSLKLTSVTAADTAVYFCVKLRFLEWFLGGWFGPWGQGTLVTVSS
VL: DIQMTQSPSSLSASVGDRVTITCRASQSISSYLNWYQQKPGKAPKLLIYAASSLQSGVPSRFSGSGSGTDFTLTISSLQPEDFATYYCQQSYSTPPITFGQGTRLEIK
notes: as for B1
For B2, in assay [1], the “% activation, with 200 pM human Leptin” value is 97%; the “% activation, without human Leptin” value was 5%; the “EC50 … with 200 pM human Leptin” value stood at 4.1e-10 M; the “EC50 … without human Leptin” value was 11.9 nM. Moreover, in assay [2], the “100 nM hLEPR-MMH Bound (RU)” value was 45 RU, binding was characterised by a dissociation constant (Kd) of 108 nM, the koff worked out at 0.00478 s⁻¹ and the kon was 44200 M⁻¹ s⁻¹. The t½ in assay [2] came out at 2.4 min. In addition, in assay [3], the “100 nM mfLEP.MMH Bound (RU)” value stood at 58 RU; the affinity, expressed as Kd, was 82.4 nM; the koff is 0.00486 s⁻¹; the kon came to 59000 M⁻¹ s⁻¹. Moreover, the t½ in assay [3] is 2.4 min. In assay [4], the “100 nM hLEPR-mFc Bound (RU)” value stood at 76 RU, the Kd came out at 4.03 nM, the koff was determined as 0.000492 s⁻¹ and the kon is 122000 M⁻¹ s⁻¹. Moreover, the t½ in assay [4] was 23 min.

B3: H4H18438P2 (antibody, human IgG4, V domains shown)
VH: QVQLVESGGGVVQPGRSLRLSCAASGFSFNTYGMHWVRQAPGKGLEWVTIIWYDGSIKYYADSVKGRFTISRDNSKNTLYLQMNSLRAEDTAVYYCARGGYSGYLYFDYWGQGTLVTVSS
VL: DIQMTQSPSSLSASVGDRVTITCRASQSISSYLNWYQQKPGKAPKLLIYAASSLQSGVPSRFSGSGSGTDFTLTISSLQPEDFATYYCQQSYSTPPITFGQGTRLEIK
notes: as for B1
As for B3, in assay [1], the “% activation, with 200 pM human Leptin” value amounted to 76%; the “% activation, without human Leptin” value was determined as 5%; the “EC50 … with 200 pM human Leptin” value stood at 2.02e-11 M; the “EC50 … without human Leptin” value was determined as 1.49 nM. In assay [2], the “100 nM hLEPR-MMH Bound (RU)” value is 22 RU, the Kd was found to be 75.4 nM, the koff amounted to 0.00226 s⁻¹ and the kon turned out to be 30000 M⁻¹ s⁻¹. In assay [2], the t½ is 5.1 min. Further, in assay [4], the “100 nM hLEPR-mFc Bound (RU)” value was 51 RU, the Kd came out at 4.7 nM, the koff stood at 0.000244 s⁻¹ and the kon amounted to 51900 M⁻¹ s⁻¹. This molecule returned a t½ in assay [4] of 47 min.

B4: H4H18449P2 (antibody, human IgG4, V domains shown)
VH: EVQLVESGGGLVQPGGSLRLSCVASGFTFNKYDMHWVRQTTGKGLEWVSGIDTDGDTYYPGSVKGRFTISRENAENSLYLQMNGLRVGDTAVYYCARWPWSGFYGAFDIWGQGTMVTVSS
VL: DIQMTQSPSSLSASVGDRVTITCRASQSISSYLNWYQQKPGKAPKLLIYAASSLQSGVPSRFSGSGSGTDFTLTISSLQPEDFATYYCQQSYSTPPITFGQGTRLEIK
notes: as for B1
In the case of B4, in assay [1], the “% activation, with 200 pM human Leptin” value is 66%; the “% activation, without human Leptin” value came out at 13%; the “EC50 … with 200 pM human Leptin” value was determined as 5.23e-11 M; the “EC50 … without human Leptin” value was determined as 0.212 nM. In assay [2], the “100 nM hLEPR-MMH Bound (RU)” value worked out at 54 RU, binding was characterised by a dissociation constant (Kd) of 8.08 nM, the koff is 0.000235 s⁻¹ and the kon was 29100 M⁻¹ s⁻¹. Also, the t½ in assay [2] amounted to 49 min. In assay [4], the “100 nM hLEPR-mFc Bound (RU)” value was determined as 116 RU, the Kd was 0.964 nM, the koff came to 6.82e-05 s⁻¹ and the kon was found to be 70500 M⁻¹ s⁻¹. In addition, in assay [4], the t½ amounted to 169 min.

B5: H4H16650P2 (antibody, human IgG4, V domains shown)
VH: QVQLVESGGGVVQPGKSLRLSCVASGFTFSSDAMYWVRQAPGKGLEWVAVIYYDGNYQYYEDSVKGRFTISRDNSQNTLDLQMNSLRVDDTAVYFCARLNWDYWYLDLWGRGTLVTVSS
VL: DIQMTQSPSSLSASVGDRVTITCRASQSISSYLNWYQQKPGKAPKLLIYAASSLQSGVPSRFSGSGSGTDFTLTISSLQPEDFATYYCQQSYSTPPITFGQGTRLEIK
notes: as for B1
B5: in assay [1], the “% activation, with 200 pM human Leptin” value worked out at 88%; the “% activation, without human Leptin” value came to 68%; the “EC50 … with 200 pM human Leptin” value stood at 5.19e-11 M; the “EC50 … without human Leptin” value worked out at 0.0619 nM. In assay [2], the “100 nM hLEPR-MMH Bound (RU)” value came out at 51 RU, binding was put at a Kd of 7.93 nM, the koff stood at 0.000223 s⁻¹ and the kon is 28100 M⁻¹ s⁻¹. In assay [2], the t½ came out at 52 min. Besides, in assay [3], the “100 nM mfLEP.MMH Bound (RU)” value was determined as 93 RU, binding was put at a Kd of 2.27 nM, the koff was 0.000137 s⁻¹ and the kon was found to be 60200 M⁻¹ s⁻¹. Further, the t½ in assay [3] turned out to be 84 min. Moreover, in assay [4], the “100 nM hLEPR-mFc Bound (RU)” value amounted to 102 RU, the Kd was 0.785 nM, the koff worked out at 8.32e-05 s⁻¹ and the kon worked out at 106000 M⁻¹ s⁻¹. In assay [4], this molecule gave a t½ of 139 min.

A word on the Kd: it is the concentration at which binding is half-saturated. Lower therefore signals a tighter complex. Usually koff stands for the first-order rate constant of dissociation. A low value points to slow dissociation. One may read the kon as the second-order rate constant of association. Low readings indicate slower complex formation, high ones faster complex formation. As usually defined, the t½ is how long it takes for the measured level to halve.
